Experimental data reported in patent publication US20090208538A1 (ROCKEFELLER UNIVERSITY, published 2009).

These binders were tested against HLA-B*0801 (human) (assay: iTopia net score).

Row | iScore | Binder
1 | 0.037 | LERQKRVTM [cdr2 211-219 LERQKRVTM]
2 | 0.065 | EHLKKTVTM [cdr2 196-204 EHLKKTVTM]
3 | 0.046 | LSLERQKRV [cdr2 209-217 LSLERQKRV]
4 | 0.054 | CIKKTKQEI [cdr2 432-440 CIKKTKQEI]

Each binder was assayed against HLA-A*1101 (human) (assay: iTopia off-rate).

Row | t1/2 | Binder
5 | 1.5 | VQTSRAAAK [cdr2 379-387 VQTSRAAAK]
6 | 0.2 | QLGATGAYR [cdr2 236-244 QLGATGAYR]
7 | 1.1 | LQSQVEELK [cdr2 129-137 LQSQVEELK]
8 | 0.51 | ADSKASQQK [cdr2 103-111 ADSKASQQK]
9 | 2.8 | GQGRRSPGK [cdr2 140-148 GQGRRSPGK]
10 | 1.4 | AQLSLERQK [cdr2 207-215 AQLSLERQK]
11 | 0.74 | SLAGSDIVK [cdr2 317-325 SLAGSDIVK]
12 | 1.78 | SPTTPPEYK [cdr2 415-423 SPTTPPEYK]
13 | 0.7 | VYDHVFAEK [cdr2 172-180 VYDHVFAEK]
14 | 0.68 | LQEIEYLTK [cdr2 60-68 LQEIEYLTK]
15 | 0.31 | PPEYKALFK [cdr2 419-427 PPEYKALFK]
16 | 0.35 | ESHRKPLKR [cdr2 300-308 ESHRKPLKR]
17 | 1.56 | LTKQVELLR [cdr2 66-74 LTKQVELLR]
18 | 1 | LQLAAELGK [cdr2 28-36 LQLAAELGK]
19 | 4.59 | LTVPESHRK [cdr2 296-304 LTVPESHRK]
20 | 0.8 | SGWELASVN [cdr2 401-409 SGWELASVN]
21 | 2.26 | KVKYEELLK [cdr2 357-365 KVKYEELLK]

What follows are binders tested against HLA-A*2402 (human) (assay: iTopia off-rate).

Row | t1/2 | Binder
22 | 1.65 | VYDHVFAEK [cdr2 172-180 VYDHVFAEK]

These binders were tested against HLA-A*0301 (human) (assay: iTopia net score).

Row | iScore | Binder
23 | 0.279 | VQTSRAAAK [cdr2 379-387 VQTSRAAAK]
24 | 0.122 | QLGATGAYR [cdr2 236-244 QLGATGAYR]
25 | 0.258 | GQGRRSPGK [cdr2 140-148 GQGRRSPGK]
26 | 0.075 | AQLSLERQK [cdr2 207-215 AQLSLERQK]
27 | 0.14 | SLAGSDIVK [cdr2 317-325 SLAGSDIVK]
28 | 0.048 | VYDHVFAEK [cdr2 172-180 VYDHVFAEK]
29 | 0.147 | ESHRKPLKR [cdr2 300-308 ESHRKPLKR]
30 | 0.086 | LQLAAELGK [cdr2 28-36 LQLAAELGK]
31 | 0.128 | LTVPESHRK [cdr2 296-304 LTVPESHRK]

These binders were tested against T1, HLA-A*0201 (human) (assay: iTopia binding;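 also: each peptide tested for binding to HLA-A2 molecules immobilized on plates, using a commercial screening kit run per its supplied protocol and reagents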).
T1 construct: also called HLA-A2.1; HLA A2.1

Row | binding vs positive control | Binder
32 | > 30% | LSLERQKRV [cdr2 209-217 LSLERQKRV]

The binders below were run against T1, HLA-A*0201 (assay: iTopia affinity;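 also: peptide affinity for plate-bound HLA-A2 molecules (iTopia system), with ED50 derived from an eight-point serial peptide dilution series run under binding assay conditions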).

Row | ED50 | Binder
33 | 8.4 µM | LSLERQKRV [cdr2 209-217 LSLERQKRV]

The binders below were run against HLA-A*1101 (human) (assay: iTopia net score).

Row | iScore | Binder
34 | 0.343 | VQTSRAAAK [cdr2 379-387 VQTSRAAAK]
35 | 0.038 | QLGATGAYR [cdr2 236-244 QLGATGAYR]
36 | 0.103 | LQSQVEELK [cdr2 129-137 LQSQVEELK]
37 | 0.054 | ADSKASQQK [cdr2 103-111 ADSKASQQK]
38 | 0.633 | GQGRRSPGK [cdr2 140-148 GQGRRSPGK]
39 | 0.271 | AQLSLERQK [cdr2 207-215 AQLSLERQK]
40 | 0.283 | SLAGSDIVK [cdr2 317-325 SLAGSDIVK]
41 | 0.136 | SPTTPPEYK [cdr2 415-423 SPTTPPEYK]
42 | 0.146 | VYDHVFAEK [cdr2 172-180 VYDHVFAEK]
43 | 0.048 | LQEIEYLTK [cdr2 60-68 LQEIEYLTK]
44 | 0.058 | PPEYKALFK [cdr2 419-427 PPEYKALFK]
45 | 0.063 | ESHRKPLKR [cdr2 300-308 ESHRKPLKR]
46 | 0.238 | LTKQVELLR [cdr2 66-74 LTKQVELLR]
47 | 0.194 | LQLAAELGK [cdr2 28-36 LQLAAELGK]
48 | 0.558 | LTVPESHRK [cdr2 296-304 LTVPESHRK]
49 | 0.059 | SGWELASVN [cdr2 401-409 SGWELASVN]
50 | 0.22 | KVKYEELLK [cdr2 357-365 KVKYEELLK]

Each binder was assayed against T1, HLA-A*0201 (assay: iTopia off-rate;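 also: Half-life of peptide complexes with plate-bound HLA-A2, peptides loaded 18 h at 21 C, washed, then held at 37 C over several time points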).

Row | t1/2 | Binder
51 | 1.25 | LSLERQKRV [cdr2 209-217 LSLERQKRV]

Each binder was assayed against HLA-A*2402 (human) (assay: iTopia net score;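 also: iScore from iTopia software combining peptide binding, affinity over a dilution series and off-rate after warming to body temperature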).

Row | iScore | Binder
52 | 0.165 | VYDHVFAEK [cdr2 172-180 VYDHVFAEK]

Each binder was assayed against HLA-A*2402 (human) (assay: iTopia affinity;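 also: peptide binding to HLA-A*2402 measured in iTopia kit format across eight serial peptide dilutions, ED50 derived from the resulting titration curve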).

Row | ED50 | Binder
53 | 6.2 µM | VYDHVFAEK [cdr2 172-180 VYDHVFAEK]

What follows are binders tested against HLA-B*0801 (human) (assay: iTopia affinity).

Row | ED50 | Binder
54 | 140 µM | LERQKRVTM [cdr2 211-219 LERQKRVTM]
55 | 130 µM | EHLKKTVTM [cdr2 196-204 EHLKKTVTM]
56 | 280 µM | LSLERQKRV [cdr2 209-217 LSLERQKRV]
57 | 240 µM | CIKKTKQEI [cdr2 432-440 CIKKTKQEI]

These binders were tested against HLA-A*1101 (human) (assay: iTopia affinity;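 also: affinity derived from a titration of eight serial peptide dilutions, each run under the same conditions as the binding screen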).

Row | ED50 | Binder
58 | 4.6 µM | VQTSRAAAK [cdr2 379-387 VQTSRAAAK]
59 | 27 µM | QLGATGAYR [cdr2 236-244 QLGATGAYR]
60 | 24 µM | LQSQVEELK [cdr2 129-137 LQSQVEELK]
61 | 56 µM | ADSKASQQK [cdr2 103-111 ADSKASQQK]
62 | 2 µM | GQGRRSPGK [cdr2 140-148 GQGRRSPGK]
63 | 5.7 µM | AQLSLERQK [cdr2 207-215 AQLSLERQK]
64 | 2.1 µM | SLAGSDIVK [cdr2 317-325 SLAGSDIVK]
65 | 20 µM | SPTTPPEYK [cdr2 415-423 SPTTPPEYK]
66 | 8.8 µM | VYDHVFAEK [cdr2 172-180 VYDHVFAEK]
67 | 62 µM | LQEIEYLTK [cdr2 60-68 LQEIEYLTK]
68 | 26 µM | PPEYKALFK [cdr2 419-427 PPEYKALFK]
69 | 26 µM | ESHRKPLKR [cdr2 300-308 ESHRKPLKR]
70 | 7.9 µM | LTKQVELLR [cdr2 66-74 LTKQVELLR]
71 | 7.9 µM | LQLAAELGK [cdr2 28-36 LQLAAELGK]
72 | 4.8 µM | LTVPESHRK [cdr2 296-304 LTVPESHRK]
73 | 31 µM | SGWELASVN [cdr2 401-409 SGWELASVN]
74 | 1.2 µM | KVKYEELLK [cdr2 357-365 KVKYEELLK]

These binders were tested against HLA-A*0301 (human) (assay: iTopia affinity).

Row | ED50 | Binder
75 | 18 µM | VQTSRAAAK [cdr2 379-387 VQTSRAAAK]
76 | 15 µM | QLGATGAYR [cdr2 236-244 QLGATGAYR]
77 | 7.8 µM | GQGRRSPGK [cdr2 140-148 GQGRRSPGK]
78 | 25 µM | AQLSLERQK [cdr2 207-215 AQLSLERQK]
79 | 11 µM | SLAGSDIVK [cdr2 317-325 SLAGSDIVK]
80 | 25 µM | VYDHVFAEK [cdr2 172-180 VYDHVFAEK]
81 | 19 µM | ESHRKPLKR [cdr2 300-308 ESHRKPLKR]
82 | 15 µM | LQLAAELGK [cdr2 28-36 LQLAAELGK]
83 | 26 µM | LTVPESHRK [cdr2 296-304 LTVPESHRK]

Each binder was assayed against T1, HLA-A*0201 (assay: iTopia net score;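 also: combined score from peptide binding, ED₅₀ and half-life of peptide complexes with plate-bound HLA-A2 molecules, computed by a proprietary formula in iTopia software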).

Row | iScore | Binder
84 | 0.139 | LSLERQKRV [cdr2 209-217 LSLERQKRV]

The binders below were run against HLA-A*0301 (human) (assay: iTopia off-rate).

Row | t1/2 | Binder
85 | 2.55 | VQTSRAAAK [cdr2 379-387 VQTSRAAAK]
86 | 0.92 | QLGATGAYR [cdr2 236-244 QLGATGAYR]
87 | 1.64 | GQGRRSPGK [cdr2 140-148 GQGRRSPGK]
88 | 0.97 | AQLSLERQK [cdr2 207-215 AQLSLERQK]
89 | 0.88 | SLAGSDIVK [cdr2 317-325 SLAGSDIVK]
90 | 0.36 | VYDHVFAEK [cdr2 172-180 VYDHVFAEK]
91 | 1.49 | ESHRKPLKR [cdr2 300-308 ESHRKPLKR]
92 | 1.12 | LQLAAELGK [cdr2 28-36 LQLAAELGK]
93 | 1.53 | LTVPESHRK [cdr2 296-304 LTVPESHRK]
